Measurements as given in patent publication US20120114652A1 (AbbVie / Abbott, published 2012).
Numbering of substitutions follows the chain as printed. One block for each binder: values may come before it.

How the values were obtained:
Test in all cases: cell-based or functional assay
[1] = target: T1, rat PAI-1 (rat, UniProt P20961 24-402)
T1 sequence: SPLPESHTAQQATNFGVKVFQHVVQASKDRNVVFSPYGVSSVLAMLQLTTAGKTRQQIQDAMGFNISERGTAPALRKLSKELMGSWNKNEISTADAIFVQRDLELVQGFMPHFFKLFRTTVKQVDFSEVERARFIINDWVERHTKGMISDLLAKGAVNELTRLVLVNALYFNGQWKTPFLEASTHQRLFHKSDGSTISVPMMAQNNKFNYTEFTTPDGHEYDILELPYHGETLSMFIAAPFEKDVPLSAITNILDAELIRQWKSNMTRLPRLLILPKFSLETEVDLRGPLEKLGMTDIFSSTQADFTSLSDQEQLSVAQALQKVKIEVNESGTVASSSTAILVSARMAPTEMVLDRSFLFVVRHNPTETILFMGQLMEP

[2] = target: T2, human PAI-1, active, wild-type, non-glycosylated (E. coli-derived) (human, UniProt P05121 24-402)
[3] = target: cynomolgus PAI-1 (cynomolgus, UniProt P05121 24-402 (human entry), limits assumed)
[4] = target: T3, mouse PAI-1 (mouse, UniProt P22777 24-401)
T3 sequence: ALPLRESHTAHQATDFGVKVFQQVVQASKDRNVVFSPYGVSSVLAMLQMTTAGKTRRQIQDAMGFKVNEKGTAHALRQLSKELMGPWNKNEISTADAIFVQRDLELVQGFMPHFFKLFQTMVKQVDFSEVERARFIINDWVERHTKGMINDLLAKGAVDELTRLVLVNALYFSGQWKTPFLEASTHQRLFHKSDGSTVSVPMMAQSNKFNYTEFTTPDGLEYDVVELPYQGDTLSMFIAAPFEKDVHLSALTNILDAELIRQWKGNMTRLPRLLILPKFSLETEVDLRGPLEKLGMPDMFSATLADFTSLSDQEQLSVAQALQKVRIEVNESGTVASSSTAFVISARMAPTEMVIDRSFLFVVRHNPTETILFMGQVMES

[5] = target: T1, rat PAI-1; remark: listed apart in the source
[6] = target: T2, human PAI-1, active, wild-type, …; remark: listed apart in the source
[7] = target: T3, mouse PAI-1; remark: listed apart in the source

- IC50 chromogenic [1]: 59.5 nM
- IC50 ratio rat/human [1]: 0.6
- IC50 chromogenic [2]: 102 nM
- IC50 chromogenic [3]: 43.8 nM
- IC50 ratio cyno/human [3]: 0.4
- IC50 chromogenic [4]: 33.6 nM
- IC50 ratio mouse/human [4]: 0.3
B1: Antibody 11, scFv (scFv, V domains shown)
VH: QVQLQQSGAEVKKPGSSVKVSCKASGGTFSSYAISWMRQAPGQGLEWMGGIIPIFGTANYAQKFQGRVTITADESTSTAYMELSGLRSEDTAVYYCAREKRQWLEGHFDYWGRGTPVTVSS
VL: DIQMIQSPSFLSASTGDRVTITCQASEGIYHELAWYQQKPGKAPKLLIYRASSLASGAPSRFSGSGSGTDFTLTISSLQPDDFATYYCQQYSNYPLTFGGGTKLEIK

- IC50 chromogenic [1]: 127 nM
- IC50 ratio rat/human [1]: 39.3
- IC50 chromogenic [2]: 3.2 nM
- IC50 chromogenic [3]: 1.1 nM
- IC50 ratio cyno/human [3]: 0.3
- IC50 chromogenic [4]: 140 nM
- IC50 ratio mouse/human [4]: 43.3
B2: Antibody 24, scFv (scFv, V domains shown)
VH: B1 VH with M37V, I54T, G56V, T69S
VL: B1 VL with I5T, T15I, Q24R, E32A

- IC50 chromogenic [1]: 24.9 nM
- IC50 ratio rat/human [1]: 0.3
- IC50 chromogenic [2]: 71.5 nM
- IC50 chromogenic [3]: 41.5 nM
- IC50 ratio cyno/human [3]: 0.6
- IC50 chromogenic [4]: 26.2 nM
- IC50 ratio mouse/human [4]: 0.4
B3: Antibody 17, scFv (scFv, V domains shown)
VH: B1 VH with M37V, I54T
VL: B1 VL with I5T, T15I, Q24R

- IC50 chromogenic [1]: 376 nM
- IC50 ratio rat/human [1]: 229
- IC50 chromogenic [2]: 1.6 nM
- IC50 chromogenic [3]: 0.5 nM
- IC50 ratio cyno/human [3]: 0.3
- IC50 chromogenic [4]: 376 nM
- IC50 ratio mouse/human [4]: 229
B4: Antibody 23, scFv (scFv, V domains shown)
VH: B1 VH with M37V, I54T, G66S
VL: B1 VL with I5T, T15I, Q24R, E32S

- IC50 HT-1080 Exo PAI-1 [5]: 52 nM
- IC50 HT-1080 Exo PAI-1 [6]: 28 nM
- IC50 HT-1080 Exo PAI-1 [7]: 22 nM
- IC50 chromogenic [1]: 23.1 nM
- IC50 chromogenic [3]: 0.8 nM
B5: Antibody 14, scFv (scFv, V domains shown)
VH: B1 VH with M37V, I54T, P116L
VL: B1 VL with I5T, T15I, Q24R, E32N, L73F

- IC50 chromogenic [1]: 91 nM
- IC50 ratio rat/human [1]: 0.5
- IC50 chromogenic [2]: 187 nM
- IC50 chromogenic [3]: 117 nM
- IC50 ratio cyno/human [3]: 0.6
- IC50 chromogenic [4]: 143 nM
- IC50 ratio mouse/human [4]: 0.8
B6: Antibody 07, scFv (scFv, V domains shown)
VH: B1 VH with M37V, M48V, I54T
VL: B1 VL with I5A, T15I, Q24R

- IC50 HT-1080 Exo PAI-1 [6]: 23.9 nM
- IC50 HT-1080 Exo PAI-1 [7]: 34.5 nM
- IC50 chromogenic [1]: 208 nM
- IC50 ratio rat/human [1]: 60.5
- IC50 chromogenic [2]: 3.4 nM
- IC50 chromogenic [3]: 1.2 nM
- IC50 ratio cyno/human [3]: 0.4
- IC50 chromogenic [4]: 28.3 nM
- IC50 ratio mouse/human [4]: 8.2
B7: Antibody 01, scFv (scFv, V domains shown)
VH: B1 VH with Q5V, M37V, G85S, P116L
VL: B1 VL with I5T, F10T, T15V, Q24R, H31R, E32S, R50K, A58V, D70E, L104V

- IC50 chromogenic [1]: 37.1 nM
- IC50 ratio rat/human [1]: 0.5
- IC50 chromogenic [2]: 74.6 nM
- IC50 chromogenic [3]: 31.6 nM
- IC50 ratio cyno/human [3]: 0.4
- IC50 chromogenic [4]: 48.2 nM
- IC50 ratio mouse/human [4]: 0.6
B8: Antibody 06, scFv (scFv, V domains shown)
VH: B1 VH with M37V, I54T
VL: B1 VL with I5T, T15I, Q24R, G100R

- IC50 chromogenic [1]: 340 nM
- IC50 ratio rat/human [1]: 51.4
- IC50 chromogenic [2]: 6.6 nM
- IC50 chromogenic [3]: 2.1 nM
- IC50 ratio cyno/human [3]: 0.3
- IC50 chromogenic [4]: 264 nM
- IC50 ratio mouse/human [4]: 39.9
B9: Antibody 04, scFv (scFv, V domains shown)
VH: B1 VH with Q3R, M37V, I54T, Q65R, D73N, H107R, P116L
VL: B1 VL with I5T, T15I, V19I, Q24R, E32S, Y49H, S52T, A58T, S63G, T72A

- IC50 chromogenic [1]: 49.2 nM
- IC50 ratio rat/human [1]: 12
- IC50 chromogenic [2]: 4.1 nM
- IC50 chromogenic [3]: 1.6 nM
- IC50 ratio cyno/human [3]: 0.4
- IC50 chromogenic [4]: 32.2 nM
- IC50 ratio mouse/human [4]: 7.9
B10: Antibody 21, scFv (scFv, V domains shown)
VH: B1 VH with Q1P, M37V, I54T
VL: B1 VL with I5A, T15I, Q24R, E32N
